# Measurements taken from the RNAGym collection of RNA variant scans (doi:10.1101/gr.219683.116).
# B1: mRNA-splicing (parent)
# chain: AGUUGCUGCUGGGAGCUCCAGCACAGUGAAAUGGACAGAAGGGCAGAGCAA
# Variants of: B1
# Experiment: exon inclusion enrichment index; higher = more inclusion; WT1 exon 5 minigene, HEK293
row,Variant,exon inclusion enrichment index
1,U3A G5U G8U C9U,0.513
2,U3C U4C G5C C6G U7C U10C,2.61
3,U3C U4A C6A U7A C9A U10A,0.528
4,G2C U3C G5A C6G U7G C9A,0.0355
5,U3C G5A C6G U7G C9A,0.00112
6,U3G U4C G5A C6U U7A G8U C9A,0.122
7,G2U G5A C6U U7A G8U C9A,0.188
8,G2C C6A U7A C9A U10A,0.788
9,U3A U4G G5C C6A U7C G8A U10A,0.0901
10,U4C G5A U7C G8A U10C,3.18
11,G2U U3G G5U G8U C9U,0.724
12,U4C G5U C6A U7C C9A U10C,4.16
13,G2C U3G G5C C6U G8C C9U U10C,1.98
14,U3G U4C G5C C6G U7C U10C,2.03
15,G2C U3C,0.044
16,G2C U3G,0.163
17,G2C U3A,0.0779
18,U4C G5U C6U G8C C9U U10C,1.08
19,G2U U3A G5A C6G U7G C9A,0.0451
20,U3G U4G G5A C6G U7G C9A,0.00966
21,U4A G5U C6U G8C C9U U10C,0.723

row,Variant,exon inclusion enrichment index
1,U3C G5A U7C G8A U10C,1.28
2,U3C U4G G5A C6G U7G C9A,0.106
3,U4C C6A U7C G8A U10A,1.12
4,U4A U7C G8A U10C,0.474
5,G2C U3G G5A C6G U7G C9A,0.00533
6,U4A G5C C6A U7C G8A U10A,0.0584
7,G2A U3A G5C C6U G8C C9U U10C,1.94
8,G2U U3G C6A U7C C9A U10C,4.84
9,U4A G5U U7C G8A U10C,2.36
10,G2U C6A U7A C9A U10A,1.36
11,U4A G5C G8U C9U,0.718
12,G2C U3G C6A U7A C9A U10A,1.14
13,U3A U4A C6A U7C C9A U10C,1.08
14,G2U U3C G5C C6U G8C C9U U10C,3.63
15,U3A G5C C6U G8C C9U U10C,2.74
16,U4A G5C C6U G8C C9U U10C,1.68
17,G2U G5C C6A U7C G8A U10A,0.329
18,U3C G5A C6U U7A G8U C9A,0.098
19,U3A U4A C6A U7A C9A U10A,0.441
20,G2A U3G G5A U7C G8A U10C,1.76
21,U3C U4A G5U G8U C9U,0.356

row,Variant,exon inclusion enrichment index
1,U4C G5C C6A U7C C9A U10C,3.54
2,G2A U3G G5C C6U G8C C9U U10C,1.42
3,U4C G5U C6A U7A C9A U10A,0.296
4,U3G G5C C6U G8C C9U U10C,0.696
5,G2C U3G G5U G8U C9U,0.38
6,U4A G5U C6G U7C U10C,1.96
7,U4A G5A C6U G8C C9U U10C,0.574
8,G2C G5C C6U G8C C9U U10C,1.41
9,U3A G5A C6G U7G C9A,0.0155
10,U4A G5U C6A U7C C9A U10C,2.45
11,G2C U3A G5U G8U C9U,0.19
12,U4A G5U,0.0569
13,U4A G5A,0.00706
14,U4A G5C,0.183
15,U3G U4A G5A C6U U7A G8U C9A,0.0777
16,G2U U3G G5C C6G U7C U10C,5.1
17,U3C U4A C6A U7C C9A U10C,2.21
18,U3C U4C G5A C6G U7G C9A,0.127
19,U3A G5C C6G U7C U10C,4.21
20,G2A U3G C6A U7A C9A U10A,0.935
21,G2C U3C C6A U7C C9A U10C,2.79

row,Variant,exon inclusion enrichment index
1,G2A U3A G5C C6A U7C G8A U10A,0.0895
2,U4C C6U G8C C9U U10C,2.37
3,U4G G5A C6G U7C U10C,2.22
4,U3A U4C G5C C6A U7C G8A U10A,0.389
5,U3G U4G C6A U7A C9A U10A,0.0489
6,U3G U4G C6A U7C C9A U10C,1.23
7,G2A U3C G5C C6G U7C U10C,3.58
8,U3A U4C G5A C6G U7G C9A,0.0761
9,G2C U3C G5C C6U G8C C9U U10C,1.91
10,U4C G5U C6G U7G C9A,0.461
11,U4C G5A C6U U7A G8U C9A,0.47
12,U4C G5C C6A U7C G8A U10A,0.286
13,U3C U4G G5A U7C G8A U10C,2.97
14,U4A G5C C6A U7A C9A U10A,0.526
15,U4A G5A C6A U7A C9A U10A,0.0853
16,U3A G5A C6U U7A G8U C9A,0.265
17,U4C G5U U7C G8A U10C,1.83
18,U3A C6A U7A C9A U10A,0.664
19,U3C U4G,0.0956
20,U3C U4C,0.208
21,U3C U4A,0.0261
